Assays:
[1] = molecular target: FG-Nup214^Glc labelled for stopped-flow kinetics; experiment: stopped-flow fluorescence anisotropy; association under pseudo-first order conditions (>10-fold excess of the NTR); kobs from single exponential fits, kon from the slope of kobs versus NTR concentration; excitation 532 nm
[2] = molecular target: FG-Nup214 labelled for stopped-flow anisotropy; experiment: as above
[3] = molecular target: FG-Nup214 labelled for stopped-flow anisotropy; experiment: stopped-flow fluorescence, dissociation; preformed FG-Nup⋅NTR complex rapidly mixed with 100× (2 μM) excess of unlabeled FG-Nup
[4] = molecular target: FG-Nup214^117 (117-aa fragment of FG-Nup214), wild type, labelled for FRET; experiment: single-molecule FRET (smFRET) titration; fractions of bound (low E_FRET) and unbound (high E_FRET) FG-Nup214^117 as a function of CRM1 concentration, with 1 μM RanGTP
[5] = molecular target: FG-Nup214^117 proline double mutant A1927P/A2017P; experiment: as above
[6] = molecular target: FG-Nup214^117 proline triple mutant A1927P/A2017P/A2019P; experiment: as above
[7] = molecular target: FG-Nup153^Glc labelled for stopped-flow kinetics; experiment: stopped-flow fluorescence anisotropy; association under pseudo-first order conditions (>10-fold excess of the NTR); kobs from single exponential fits, kon from the slope of kobs versus NTR concentration; excitation 532 nm
[8] = molecular target: FG-Nup153 labelled for stopped-flow kinetics; experiment: stopped-flow fluorescence, dissociation; preformed FG-Nup⋅NTR complex rapidly mixed with 100× (2 μM) excess of unlabeled FG-Nup
[9] = molecular target: T1, CRM1 (export receptor, exportin) (UniProt O14980 1-1071); experiment: stopped-flow fluorescence (donor signal of a FRET-labelled sample); association; donor signal change of FRET-labelled FG-Nup214 instead of anisotropy; settings: both partners purified
T1 construct: exportin CRM1; Construct details in the Supplemental Experimental Procedures; also called exportin CRM1
T1 sequence (O14980 whole entry): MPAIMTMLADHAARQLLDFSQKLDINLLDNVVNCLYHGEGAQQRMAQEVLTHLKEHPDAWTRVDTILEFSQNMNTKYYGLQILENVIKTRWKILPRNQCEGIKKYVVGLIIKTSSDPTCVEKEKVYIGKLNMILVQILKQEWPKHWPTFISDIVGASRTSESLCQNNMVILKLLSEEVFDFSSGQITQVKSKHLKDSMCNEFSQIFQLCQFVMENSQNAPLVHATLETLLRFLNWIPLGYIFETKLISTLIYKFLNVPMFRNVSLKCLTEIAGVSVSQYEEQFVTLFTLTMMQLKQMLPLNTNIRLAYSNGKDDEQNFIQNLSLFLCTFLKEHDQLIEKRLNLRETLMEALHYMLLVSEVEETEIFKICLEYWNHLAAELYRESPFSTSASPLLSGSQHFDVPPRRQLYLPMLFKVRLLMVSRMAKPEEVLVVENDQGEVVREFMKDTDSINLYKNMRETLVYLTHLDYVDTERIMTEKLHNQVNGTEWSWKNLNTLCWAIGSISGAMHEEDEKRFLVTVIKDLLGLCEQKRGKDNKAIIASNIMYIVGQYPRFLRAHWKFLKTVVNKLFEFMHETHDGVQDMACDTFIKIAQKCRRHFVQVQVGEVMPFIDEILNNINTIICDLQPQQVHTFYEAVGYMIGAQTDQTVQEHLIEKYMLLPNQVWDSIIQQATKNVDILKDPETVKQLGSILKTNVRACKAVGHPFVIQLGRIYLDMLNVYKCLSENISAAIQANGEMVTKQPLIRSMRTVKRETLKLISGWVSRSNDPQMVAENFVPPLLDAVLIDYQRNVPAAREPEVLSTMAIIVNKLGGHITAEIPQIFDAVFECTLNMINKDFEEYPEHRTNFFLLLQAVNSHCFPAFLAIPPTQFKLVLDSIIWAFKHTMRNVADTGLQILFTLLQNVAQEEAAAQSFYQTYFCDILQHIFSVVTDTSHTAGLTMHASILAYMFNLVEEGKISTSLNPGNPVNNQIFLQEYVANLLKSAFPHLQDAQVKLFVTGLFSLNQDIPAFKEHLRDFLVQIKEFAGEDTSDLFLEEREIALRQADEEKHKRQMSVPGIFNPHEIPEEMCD

CRM1 (export receptor, exportin) (from UniProt O14980 1-1071)
kon [1]: 3.8e+07 M⁻¹ s⁻¹
kon [2]: 4e+07 M⁻¹ s⁻¹

CRM1⋅RanGTP complex (from UniProt O14980 1-1071; P62826 1-216)
kon [1]: 1.3e+07 M⁻¹ s⁻¹
kon [2]: 2.1e+07 M⁻¹ s⁻¹
complex half-life [3]: 5 s
koff [3]: 0.14 s⁻¹
Kd [4]: 35 nM
Kd [5]: 53 nM
Kd [6]: 222 nM

Importinβ (import receptor) (from UniProt Q14974 1-876)
kon [7]: 8.5e+08 M⁻¹ s⁻¹
complex half-life [8]: 0.08 s
koff [8]: 8.7 s⁻¹

B1: FG-Nup214 (FG domain of Nup214), double-labelled for FRET (domain or fragment)
chain: ATTTSVAPPAATSTSSTAVFGSLPVTSAGSSGVISFGGTSLSAGKTSFSFGSQQTNSTVPPSAPPPTTAATPLPTSFPTLSFGSLLSSATTPSLPMSAGRSTEEATSSALPEKPGDSEVSASAASLLEEQQSAQLPQAPPQTSDSVKKEPVLAQPAVSNSGTAASSTSLVALSAEATPATTGVPDARTEAVPPASSFSVPGQTAVTAAAISSAGPVAVETSSTPIASSTTSIVAPGPSAEAAAFGTVTSGSSVFAQPPAASSSSAFNQLTNNTATAPSATPVFGQVAASTAPSLFGQQTGSTASTAAATPQVSSSGFSSPAFGTTAPGVFGQTTFGQASVFGQSASSAASVFSFSQPGFSSVPAFGQPASSTPTSTSGSVFGAASSTSSSSSFSFGQSSPNTGGGLFGQSNAPAFGQSPGFGQGGSVFGGTSAATTTAATSGFSFCQASGFGSSNTGSVFGQAASTGGIVFGQQSSSSSGSVFGSGNTGRGGGFFSGLGGKPSQDAANKNPFSCASGGFGSTATSNTSNLFGNSGAKTFGGFASSSFGEQKPTGTFSSGGGSVASQGFGFSSPNKTGGFGAAPVFGSPPTFGGSPGFGGVPAFGSAPAFTSPLGSTGGKVFGEGTAAASAGGFGFGSSSNTTSFGTLASQNAPTFGSLSQQTSGFGTQSSGFSGFGSGTGGFSFGSNNSSVQGFGGWRS
modifications: Alexa594-maleimide (acceptor) on the Cys introduced at 1,905; p-acetylphenylalanine (AcF) at 2,043 labelled with Alexa488-hydroxylamine (donor)
kon [9]: 3e+07 M⁻¹ s⁻¹
